According to US20220185894A1 (F STAR THERAPEUTICS, published 2022):

T1: mouse LAG-3 expressed on cells (mouse, UniProt Q61790 24-521)
T1 construct: also called mLAG-3; murine LAG-3 HEK
T1 sequence: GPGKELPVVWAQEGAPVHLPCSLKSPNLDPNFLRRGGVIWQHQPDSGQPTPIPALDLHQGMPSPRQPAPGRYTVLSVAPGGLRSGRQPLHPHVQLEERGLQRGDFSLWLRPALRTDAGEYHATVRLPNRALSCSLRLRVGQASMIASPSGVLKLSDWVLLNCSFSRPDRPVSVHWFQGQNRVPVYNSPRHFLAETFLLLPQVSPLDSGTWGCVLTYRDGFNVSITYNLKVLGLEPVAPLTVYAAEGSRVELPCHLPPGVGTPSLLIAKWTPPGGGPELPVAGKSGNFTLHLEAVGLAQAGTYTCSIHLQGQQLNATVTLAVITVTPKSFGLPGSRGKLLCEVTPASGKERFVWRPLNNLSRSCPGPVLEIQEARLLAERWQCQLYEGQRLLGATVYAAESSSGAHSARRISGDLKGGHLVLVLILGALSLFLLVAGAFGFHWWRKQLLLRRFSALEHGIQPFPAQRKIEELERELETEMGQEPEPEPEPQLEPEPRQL

T2: mouse LAG-3 Fc (R&D Systems, 3328-L3-050) (mouse, UniProt Q61790 24-442)
T2 construct: Bought protein; also called mLAG-3 Fc; murine LAG-3Fc; not shown: Fc tag of the bought fusion protein
T2 sequence: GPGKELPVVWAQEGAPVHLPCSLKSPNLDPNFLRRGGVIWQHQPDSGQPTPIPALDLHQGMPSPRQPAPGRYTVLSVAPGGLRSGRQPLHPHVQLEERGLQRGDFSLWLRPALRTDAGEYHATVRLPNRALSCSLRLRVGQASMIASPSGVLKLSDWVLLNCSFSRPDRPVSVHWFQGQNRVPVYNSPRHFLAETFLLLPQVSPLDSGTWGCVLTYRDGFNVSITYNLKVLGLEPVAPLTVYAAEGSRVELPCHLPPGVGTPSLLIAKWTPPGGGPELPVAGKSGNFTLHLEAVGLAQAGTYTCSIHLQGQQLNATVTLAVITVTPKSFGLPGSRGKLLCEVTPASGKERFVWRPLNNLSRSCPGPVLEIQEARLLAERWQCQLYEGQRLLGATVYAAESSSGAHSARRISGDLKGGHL

T3: recombinant Fc-tagged human LAG-3 (R&D Systems, 2319-L3-050) (human, UniProt P18627 23-450)
T3 construct: Bought protein; also called LAG-3 Fc; human LAG-3-Fc; not shown: Fc tag of the bought fusion protein
T3 sequence: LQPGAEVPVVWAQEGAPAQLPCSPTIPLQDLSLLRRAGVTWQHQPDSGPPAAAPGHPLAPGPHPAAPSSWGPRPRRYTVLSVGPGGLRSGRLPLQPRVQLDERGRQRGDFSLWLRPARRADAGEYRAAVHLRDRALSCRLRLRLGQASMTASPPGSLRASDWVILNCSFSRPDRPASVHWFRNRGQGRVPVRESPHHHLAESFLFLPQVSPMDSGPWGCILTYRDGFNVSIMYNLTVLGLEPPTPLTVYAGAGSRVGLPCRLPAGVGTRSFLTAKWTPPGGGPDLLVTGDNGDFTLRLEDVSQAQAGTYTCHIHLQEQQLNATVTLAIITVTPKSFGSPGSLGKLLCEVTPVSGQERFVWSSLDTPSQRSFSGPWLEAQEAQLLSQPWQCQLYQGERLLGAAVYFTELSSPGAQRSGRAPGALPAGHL


Experiments:
[1] = target: T1, mouse LAG-3 expressed on cells; assay: flow cytometry on HEK cells expressing mouse LAG-3
Method: The plates were centrifuged at 1500 rpm for 3 min at 4° C. to pellet the cells. […] (plates were kept in the dark). […] The plates were read using Canto II flow cytometer (BD Bioscience). Dead cells were excluded and the fluorescence in the FITC channel (488 nm/530/30) was measured. The data was fit using log (agonist) vs response in GraphPad Prism Software.

[2] = target: T1, mouse LAG-3 expressed on cells; assay: flow cytometry on HEK cells expressing mouse LAG-3; remark: listed apart in the source
Method: HEK cells expressing mLAG-3 grown in DMEM (Life Technologies, 61965-026) containing 10% FBS (Life Technologies, 10270-1-6), 100 μg/ml Hygromycin B (Melford Laboratories Ltd, Z2475), 15 μg/ml Blasticidin (Melford Laboratories Ltd, B1105) and 1 μg/ml Doxycyclin (Sigma, D9891) were detached from tissue culture flasks using cell dissociation buffer (Life Technologies, 13151-014). Cells were collected by centrifuged at 1500 rpm for 3 min at 4° C. to pellet the cells and then resuspended in 1×DPBS then seeded in V-bottom 96-well plates (Costar, 3897) at 1.2×10⁵ cells/well in 30 μl. A 1:1 volume of a dilution series of the mAb² (or control mAb) was added and incubated with the cells for 1 h at 4° C. The plates were washed and secondary antibody (Anti-human Fc-488, Jackson ImmunoResearch, 109-546-098) was diluted 1:1000 in PBS and 60 μl was added to the cells for 30 min at 4° C. (plates were kept in the dark). The plates were then washed and the cells resuspended in 60 μl PBS containing 1 μg/ml DAPI (Biotium, 40043). The plates were read using Canto II flow cytometer (BD Bioscience). Dead cells were excluded and the fluorescence in the FITC channel (488 nm/530/30) was measured. The data was fitted using log (agonist) vs response in GraphPad Prism Software.

[3] = target: T2, mouse LAG-3 Fc (R&D Systems, …); assay: SPR, Biacore 3000; mLAG-3 Fc immobilised, Fcab injected
Method: A Biacore 3000 (GE Healthcare) was used to measure the affinity of the surrogate Fcabs specific for mouse LAG-3 to mouse LAG-3. […] Fcabs were diluted in HBS-P buffer (GE Healthcare, BR-1003-68) and injected at various concentrations (fourfold dilutions from 100 nM) for 3 min at 20 μl/min and then allowed to dissociate in buffer for 12 min. The chip was regenerated by injection of 10 mM glycine pH 2.5 for 30 s at 30 μl/min. Data was double reference subtracted and analyzed using BIAevaluation 3.2 software to calculate kinetic constants.

[4] = target: T2, mouse LAG-3 Fc (R&D Systems, …); assay: flow cytometry; inhibition of mouse LAG-3 Fc binding to MHC class II on A375 cells
Method: (§1) The plates were centrifuged at 1500 rpm for 3 min at 4° C. to pellet the cells. […] LAG-3/Fcab mix was added to the A375 cells and incubated for 1 h at 4° C. Cells were washed. Secondary antibody (Alexa Fluor 488 conjugated goat anti-human Fc F(ab′)₂, Jackson Immunoresearch, 109-546-098 or Goat anti-mouse IgG (H+L) 488 conjugate, Life Technologies, A-1101) was diluted 1:1000 in PBS and 100 μl was added to the cells for 30 min at 4° C. (plates were kept in the dark). Cells were washed once in PBS and resuspended in 100 μl PBS+1 μg/ml DAPI (Biotium, 40043). The plates were read on a BD FACSCanto II cytometer (BD Biosciences) and the data analysed using FlowJo software.

[5] = target: T3, recombinant Fc-tagged human LAG-3 (R&D …); assay: flow cytometry; inhibition of human LAG-3 Fc binding to MHC class II on A375 cells
Method: as §1

[6] = target: T1, mouse LAG-3 expressed on cells; assay: flow cytometry on HEK cells expressing murine LAG-3
Method: (§2) The affinity of the mAb² (all containing the LALA mutations) binding to cell expressed murine LAG-3 or murine PD-L1 was determined using flow cytometry. HEK cells expressing murine LAG-3 or murine PD-L1 grown in DMEM (Life Technologies, 61965-026) containing 10% FBS (Life Technologies, 10270-1-6), 100 μg/ml Hygromycin B (Melford Laboratories Ltd, Z2475), 15 μg/ml Blasticidin (Melford Laboratories Ltd, B1105) and 1 μg/ml Doxycyclin (Sigma, D9891) were detached from tissue culture flasks using cell dissociation buffer (Life Technologies, 13151-014) and seeded in V-bottom 96-well plates (Costar, 3897) at 2×10⁵ cells/well. The plates were centrifuged at 1500 rpm for 3 min at 4° C. to pellet the cells. A dilution series of the mAb² (or control mAb) were incubated with the cells in a 60 μl volume for 1 h at 4° C. The plates were washed and secondary antibody (Anti-human Fc-488, Jackson ImmunoResearch, 109-546-098 for mAb² or Anti-Rat IgG (H+L), Alexa Fluor 488, ThermoFisher, A-11006 for anti-LAG-3 control, C9B7W) was diluted 1:1000 in PBS and 50 μl was added to the cells for 30 min at 4° C. (plates were kept in the dark). The plates were washed then cells were resuspended in 50 μl FACS Cell Fix (BD Bioscience, 340181) for 15 minutes, then washed and resuspended in 100 μl PBS containing 1 μg/ml DAPI (Biotium, 40043). The plates were read using Canto II flow cytometer (BD Bioscience). Dead cells were excluded and the fluorescence in the FITC channel (488 nm/530/30) was measured. The data was fit using log (agonist) vs response in GraphPad Prism Software. The plates were read on a BD FACSCanto II cytometer (BD Biosciences) and the data analysed using FlowJo.

[7] = target: T4, murine PD-L1 expressed on cells (mouse, UniProt Q9EP73 19-290); assay: flow cytometry on HEK cells expressing murine PD-L1
T4 construct: also called murine PD-L1 HEK
Method: as §2, with “The plates were washed then cells were resuspended in 50 μl FACS Cell Fix (BD Bioscience, 340181) for 15 minutes, then washed and resuspended in 100 μl PBS containing 1 μg/ml DAPI (Biotium, 40043).” left out, “The data was fit using log (agonist) vs response in GraphPad Prism Software.” left out

T4 sequence (Q9EP73 19-290 limits assumed): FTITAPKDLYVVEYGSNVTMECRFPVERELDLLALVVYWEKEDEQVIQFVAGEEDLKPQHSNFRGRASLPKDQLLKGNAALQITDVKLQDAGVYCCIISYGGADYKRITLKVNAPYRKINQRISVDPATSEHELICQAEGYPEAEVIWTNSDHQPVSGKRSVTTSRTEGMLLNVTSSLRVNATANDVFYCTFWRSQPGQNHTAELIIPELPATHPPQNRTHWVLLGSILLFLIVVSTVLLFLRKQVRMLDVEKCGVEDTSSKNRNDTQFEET

| Binder | EC50 [1] [nM] | Kd [3] [nM] | IC50 [4] [nM] | IC50 [5] [nM] | EC50 [6] [nM] | EC50 [7] [nM] | further results |
| --- | --- | --- | --- | --- | --- | --- | --- |
| anti-mouse LAG-3 Fcab FS18-7-108-29 (designed binder, Fcab (truncated hinge, CH2, CH3)) TCPPCPAPELLGGPSVFLFPPKPKDTLMISRTPEVTCVVVDVSHEDPEVKFNWYVDGVEVHNAKTKPREEQYNSTYRVVSVLTVLHQDWLNGKEYKCKVSNKALPAPIEKTISKAKGQPREPQVYTLPPSWDEPWGEDVSLTCLVKGFYPSDIVVEWESNGQPENNYKTTPPVLDSDGSFFLYSKLTVPFERWMWPDEFSCSVMHEALHNHYTQKSLSLSPG | 4.5 | 1.5 | 0.6 |  |  |  | EC50 [2]: 2.6 nM |
| anti-human LAG-3 Fcab FS18-7-33 (designed binder) TCPPCPAPELLGGPSVFLFPPKPKDTLMISRTPEVTCVVVDVSHEDPEVKFNWYVDGVEVHNAKTKPREEQYNSTYRVVSVLTVLHQDWLNGKEYKCKVSNKALPAPIEKTISKAKGQPREPQVYTLPPSWDEPWGEDVSLTCLVKGFYPSDIAVEWESNGQPEDNYKTTPPVLDSDGSFFLYSKLTVPYDRWVWPDEFSCSVMHEALHNHYTQKSLSLSPG |  |  |  | 2.6 |  |  |  |
| anti-mouse LAG-3/PD-L1 mAb2 FS18-7-108-29/S1 with LALA mutation (bispecific antibody, also called FS18-29/S1) heavy: not shown light: DIQMTQSPSSLSASVGDRVTITCRASQDVSTAVAWYQQKPGKAPKLLIYSASFLYSGVPSRFSGSGSGTDFTLTISSLQPEDFATYYCQQYLFTPPTFGQGTKVEIKRTVAAPSVFIFPPSDEQLKSGTASVVCLLNNFYPREAKVQWKVDNALQSGNSQESVTEQDSKDSTYSLSSTLTLSKADYEKHKVYACEVTHQGLSSPVTKSFNRGEC |  |  |  |  | 2.27 | 11.9 |  |

Further lines, with some results ahead:

| EC50 [1] [nM] | Kd [3] [nM] | IC50 [4] [nM] | IC50 [5] [nM] | EC50 [6] [nM] | EC50 [7] [nM] | Binder | further results |
| --- | --- | --- | --- | --- | --- | --- | --- |
| 4.5 | 2.1 | 0.7 |  |  |  | anti-mouse LAG-3 Fcab FS18-7-108-35 (designed binder, Fcab (truncated hinge, CH2, CH3)) TCPPCPAPELLGGPSVFLFPPKPKDTLMISRTPEVTCVVVDVSHEDPEVKFNWYVDGVEVHNAKTKPREEQYNSTYRVVSVLTVLHQDWLNGKEYKCKVSNKALPAPIEKTISKAKGQPREPQVYTLPPSWDEPWGEDVSLTCLVKGFYPSDISVEWESNGQPENNYKTTPPVLDSDGSFFLYSKLTVPFERWMWPDEFSCSVMHEALHNHYTQKSLSLSPG |  |
|  |  |  | 2.4 |  |  | anti-human LAG-3 Fcab FS18-7-78 (designed binder) TCPPCPAPELLGGPSVFLFPPKPKDTLMISRTPEVTCVVVDVSHEDPEVKFNWYVDGVEVHNAKTKPREEQYNSTYRVVSVLTVLHQDWLNGKEYKCKVSNKALPAPIEKTISKAKGQPREPQVYTLPPSWDEPWGEDVSLTCLVKGFYPSDIAVEWESNGYKEENYKTTPPVLDSDGSFFLYSKLTVPYDRWVWPDEFSCSVMHEALHNHYTQKSLSLSPG |  |
|  |  |  |  | 3.84 | 12.3 | anti-mouse LAG-3/PD-L1 mAb2 FS18-7-108-35/S1 with LALA mutation (bispecific antibody, also called FS18-35/S1) heavy: not shown light: DIQMTQSPSSLSASVGDRVTITCRASQDVSTAVAWYQQKPGKAPKLLIYSASFLYSGVPSRFSGSGSGTDFTLTISSLQPEDFATYYCQQYLFTPPTFGQGTKVEIKRTVAAPSVFIFPPSDEQLKSGTASVVCLLNNFYPREAKVQWKVDNALQSGNSQESVTEQDSKDSTYSLSSTLTLSKADYEKHKVYACEVTHQGLSSPVTKSFNRGEC |  |
